Molecular target: histone H3 tail symmetrically dimethylated on R2 and trimethylated on K4 (H3R2me2sK4me3)
Assay: fluorescence polarisation

fold increase in binding affinity against H3K4me3 alone: 20 fold
Substance: PHD finger of RAG2 (domain or fragment)

— publication PMC3377377
